Test results as given in publication PMC8094116.

What was measured:
[1] = biological target: mEGFP–Daple NT (N-terminal domain of mouse Daple) (mouse); assay: single-molecule photobleaching steps and spot intensities
[2] = biological target: mEGFP–Daple FL (full-length mouse Daple, mEGFP(A206K)-Daple-Flag) (mouse) (UniProt Q6VGS5); assay: as above
[3] = biological target: Microtubules polymerised from tubulin protein (T240; Cytoskeleton), paclitaxel-stabilised (UniProt P02550); assay: co-sedimentation
[4] = biological target: mEGFP–Daple FL ΔCT (mouse Daple lacking the CT domain) (mouse); assay: single-molecule photobleaching steps and spot intensities

mEGFP–Daple NT (N-terminal domain of mouse Daple) (domain or fragment)
stoichiometry N [1]: 2

mEGFP–Daple FL (full-length mouse Daple, mEGFP(A206K)-Daple-Flag), Q6VGS5 1-2009
stoichiometry N [2]: 2

mEGFP–Daple FL (full-length mouse Daple, mEGFP(A206K)-Daple-Flag) (from UniProt Q6VGS5 1-2009) (natural protein)
Kd [3]: 1.46 µM

mEGFP–Daple FL ΔCT (mouse Daple lacking the CT domain) (domain or fragment)
stoichiometry N [4]: 2
